Like-named read-outs stand apart in the source and are kept apart here.
Columns and labels:
C3b [1] = molecular target: T1, C3b (UniProt P01024 749-1663; P01024 23-667); assay: SPR; amine-coupled C3b (monomeric), steady state
iC3b [2] = molecular target: T2, iC3b (UniProt P01024 23-667; P01024 749-1303; P01024 1321-1663); assay: SPR; thioester-coupled (clustered), steady state
C3b [3] = molecular target: T1, C3b; assay: SPR; thioester-coupled C3b (clustered), steady state
C3b [4] = molecular target: T1, C3b; assay: SPR; amine-coupled C3b (monomeric), steady state; remark: listed apart in the source
C3dg = C3dg (UniProt P01024 955-1303); assay: SPR; thioester-coupled (clustered), steady state
iC3b [5] = molecular target: T2, iC3b; assay: SPR; thioester-coupled (clustered), steady state; remark: listed apart in the source

T1 sequence (P01024 749-1663, chain 1 of 2): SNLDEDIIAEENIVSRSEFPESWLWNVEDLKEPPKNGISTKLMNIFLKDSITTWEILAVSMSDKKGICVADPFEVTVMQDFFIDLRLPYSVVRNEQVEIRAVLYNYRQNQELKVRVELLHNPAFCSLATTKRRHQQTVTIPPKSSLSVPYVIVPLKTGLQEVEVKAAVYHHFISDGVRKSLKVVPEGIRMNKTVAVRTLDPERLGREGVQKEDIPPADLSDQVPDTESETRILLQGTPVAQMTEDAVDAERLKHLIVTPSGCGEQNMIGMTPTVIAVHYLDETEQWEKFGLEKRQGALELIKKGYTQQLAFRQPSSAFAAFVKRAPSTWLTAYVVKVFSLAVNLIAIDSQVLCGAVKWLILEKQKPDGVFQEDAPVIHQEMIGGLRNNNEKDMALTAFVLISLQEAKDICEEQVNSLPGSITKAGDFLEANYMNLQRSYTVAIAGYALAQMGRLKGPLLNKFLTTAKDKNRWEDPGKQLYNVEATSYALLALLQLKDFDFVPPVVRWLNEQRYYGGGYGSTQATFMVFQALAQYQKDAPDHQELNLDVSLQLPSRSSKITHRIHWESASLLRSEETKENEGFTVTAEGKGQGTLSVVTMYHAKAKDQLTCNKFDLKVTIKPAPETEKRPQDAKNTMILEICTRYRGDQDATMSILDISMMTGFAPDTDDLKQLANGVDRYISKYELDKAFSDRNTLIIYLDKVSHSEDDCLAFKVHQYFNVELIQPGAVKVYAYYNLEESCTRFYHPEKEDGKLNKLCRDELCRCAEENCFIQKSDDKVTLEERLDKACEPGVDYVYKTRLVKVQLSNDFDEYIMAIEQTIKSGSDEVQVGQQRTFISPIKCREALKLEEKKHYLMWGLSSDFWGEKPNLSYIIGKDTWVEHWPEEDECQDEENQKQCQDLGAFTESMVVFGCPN
T1 sequence (P01024 23-667, chain 2 of 2): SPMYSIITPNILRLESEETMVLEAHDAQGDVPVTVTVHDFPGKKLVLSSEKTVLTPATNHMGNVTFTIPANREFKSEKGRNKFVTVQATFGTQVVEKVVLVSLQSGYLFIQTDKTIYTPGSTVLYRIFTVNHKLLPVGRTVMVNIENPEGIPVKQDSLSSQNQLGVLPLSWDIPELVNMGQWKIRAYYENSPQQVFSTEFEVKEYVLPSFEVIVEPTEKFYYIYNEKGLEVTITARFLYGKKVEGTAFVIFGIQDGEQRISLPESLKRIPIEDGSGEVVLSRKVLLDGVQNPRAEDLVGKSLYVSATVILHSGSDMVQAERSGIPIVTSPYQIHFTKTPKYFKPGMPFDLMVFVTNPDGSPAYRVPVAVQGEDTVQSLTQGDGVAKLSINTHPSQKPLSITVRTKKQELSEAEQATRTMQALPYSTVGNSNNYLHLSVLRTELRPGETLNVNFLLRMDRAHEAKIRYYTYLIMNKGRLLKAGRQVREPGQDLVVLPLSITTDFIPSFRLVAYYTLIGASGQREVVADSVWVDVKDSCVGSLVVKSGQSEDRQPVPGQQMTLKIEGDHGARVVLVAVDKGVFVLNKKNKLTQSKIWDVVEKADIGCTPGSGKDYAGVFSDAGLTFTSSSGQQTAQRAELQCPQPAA
T2 sequence (P01024 23-667, chain 1 of 3): as the sequence (P01024 23-667, chain 2 of 2) above
T2 sequence (P01024 749-1303, chain 2 of 3): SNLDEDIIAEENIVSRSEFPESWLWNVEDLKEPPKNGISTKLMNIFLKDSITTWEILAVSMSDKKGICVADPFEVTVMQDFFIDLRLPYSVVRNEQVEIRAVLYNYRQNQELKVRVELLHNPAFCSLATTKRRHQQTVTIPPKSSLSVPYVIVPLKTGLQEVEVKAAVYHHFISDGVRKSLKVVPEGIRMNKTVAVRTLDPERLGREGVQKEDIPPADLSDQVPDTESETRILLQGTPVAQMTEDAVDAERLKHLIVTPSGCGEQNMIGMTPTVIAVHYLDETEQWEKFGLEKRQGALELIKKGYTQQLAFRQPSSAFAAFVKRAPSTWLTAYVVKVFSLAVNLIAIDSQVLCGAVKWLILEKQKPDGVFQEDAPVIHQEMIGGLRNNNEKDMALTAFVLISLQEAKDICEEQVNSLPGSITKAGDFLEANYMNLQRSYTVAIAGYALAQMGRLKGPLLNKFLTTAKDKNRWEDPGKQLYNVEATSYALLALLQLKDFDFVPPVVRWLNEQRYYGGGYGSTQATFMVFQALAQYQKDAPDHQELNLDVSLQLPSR
T2 sequence (P01024 1321-1663, chain 3 of 3): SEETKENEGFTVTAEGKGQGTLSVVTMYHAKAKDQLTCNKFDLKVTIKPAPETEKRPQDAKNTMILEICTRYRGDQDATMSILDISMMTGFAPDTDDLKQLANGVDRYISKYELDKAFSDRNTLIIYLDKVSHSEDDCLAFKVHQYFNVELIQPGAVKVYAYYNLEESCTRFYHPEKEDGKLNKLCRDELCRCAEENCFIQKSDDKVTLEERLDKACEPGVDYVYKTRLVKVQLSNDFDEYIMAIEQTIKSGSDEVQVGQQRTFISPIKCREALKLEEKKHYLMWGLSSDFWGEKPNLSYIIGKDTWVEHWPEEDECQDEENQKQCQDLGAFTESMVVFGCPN
Chain of C3dg (P01024 955-1303): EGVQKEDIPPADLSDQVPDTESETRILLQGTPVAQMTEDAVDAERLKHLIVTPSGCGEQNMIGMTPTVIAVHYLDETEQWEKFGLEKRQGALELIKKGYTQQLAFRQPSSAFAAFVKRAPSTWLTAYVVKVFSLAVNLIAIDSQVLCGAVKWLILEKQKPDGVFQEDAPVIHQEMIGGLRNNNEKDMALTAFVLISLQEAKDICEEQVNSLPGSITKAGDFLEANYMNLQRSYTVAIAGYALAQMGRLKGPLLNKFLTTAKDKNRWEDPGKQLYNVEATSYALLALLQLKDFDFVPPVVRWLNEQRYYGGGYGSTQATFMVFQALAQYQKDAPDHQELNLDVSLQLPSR

B1: Complement factor H (CFH) (other)
chain: EDCNELPPRRNTEILTGSWSDQTYPEGTQAIYKCRPGYRSLGNVIMVCRKGEWVALNPLRKCQKRPCGHPGDTPFGTFTLTGGNVFEYGVKAVYTCNEGYQLLGEINYRECDTDGWTNDIPICEVVKCLPVTAPENGKIVSSAMEPDREYHFGQAVRFVCNSGYKIEGDEEMHCSDDGFWSKEKPKCVEISCKSPDVINGSPISQKIIYKENERFQYKCNMGYEYSERGDAVCTESGWRPLPSCEEKSCDNPYIPNGDYSPLRIKHRTGDEITYQCRNGFYPATRGNTAKCTSTGWIPAPRCTLKPCDYPDIKHGGLYHENMRRPYFPVAVGKYYSYYCDEHFETPSGSYWDHIHCTQDGWSPAVPCLRKCYFPYLENGYNQNYGRKFVQGKSIDVACHPGYALPKAQTTVTCMENGWSPTPRCIRVKTCSKSSIDIENGFISESQYTYALKEKAKYQCKLGYVTADGETSGSITCGKDGWSAQPTCIKSCDIPVFMNARTKNDFTWFKLNDTLDYECHDGYESNTGSTTGSIVCGYNGWSDLPICYERECELPKIDVHLVPDRKKDQYKVGEVLKFSCKPGFTIVGPNSVQCYHFGLSPDLPICKEQVQSCGPPPELLNGNVKEKTKEEYGHSEVVEYYCNPRFLMKGPNKIQCVDGEWTTLPVCIVEESTCGDIPELEHGWAQLSSPPYYYGDSVEFNCSESFTMIGHRSITCIHGVWTQLPQCVAIDKLKKCKSSNLIILEEHLKNKKEFDHNSNIRYRCRGKEGWIHTVCINGRWDPEVNCSMAQIQLCPPPPQIPNSHNMTTTLNYRDGEKVSVLCQENYLIQEGEEITCKDGRWQSIPLCVEKIPCSQPPQIEHGTINSSRSSQESYAHGTKLSYTCEGGFRISEENETTCYMGKWSSPPQCEGLPCKSPPEISHGVVAHMSDSYQYGEEVTYKCFEGFGIDGPAIAKCLGEKWSHPPSCIKTDCLSLPSFENAIPMGEKKDVYKAGEQVTYTCATYYKMDGASNVTCINSRWTGRPTCRDTSCVNPPTVQNAYIVSRQMSKYPSGERVRYQCRSPYEMFGDEEVMCLNGNWTEPPQCKDSTGKCGPPPPIDNGDITSFPLSVYAPASSVEYQCQNLYQLEGNKRITCRNGQWSEPPKCLHPCVISREIMENYNIALRWTAKQKLYSRTGESVEFVCKRGYRLSSRSHTLRTTCWDGKLEYPTCAKR
A Kd (C3b [1]) of 1700 nM and a Kd (iC3b [2]) of 2600 nM were found for B1 in this work.

B2: CFHR5 (complement factor H-related protein 5), wild type (other)
chain: EGTLCDFPKIHHGFLYDEEDYNPFSQVPTGEVFYYSCEYNFVSPSKSFWTRITCTEEGWSPTPKCLRMCSFPFVKNGHSESSGLIHLEGDTVQIICNTGYSLQNNEKNISCVERGWSTPPICSFTKGECHVPILEANVDAQPKKESYKVGDVLKFSCRKNLIRVGSDSVQCYQFGWSPNFPTCKGQVRSCGPPPQLSNGEVKEIRKEEYGHNEVVEYDCNPNFIINGPKKIQCVDGEWTTLPTCVEQVKTCGYIPELEYGYVQPSVPPYQHGVSVEVNCRNEYAMIGNNMITCINGIWTELPMCVATHQLKRCKIAGVNIKTLLKLSGKEFNHNSRIRYRCSDIFRYRHSVCINGKWNPEVDCTEKREQFCPPPPQIPNAQNMTTTVNYQDGEKVAVLCKENYLLPEAKEIVCKDGRWQSLPRCVESTAYCGPPPSINNGDTTSFPLSVYPPGSTVTYRCQSFYKLQGSVTVTCRNKQWSEPPRCLDPCVVSEENMNKNNIQLKWRNDGKLYAKTGDAVEFQCKFPHKAMISSPPFRAICQEGKFEYPICE
A Kd (C3b [3]) of 310 nM, a Kd (C3b [4]) of 3800 nM and a Kd (C3dg) of 270 nM were found for B2 in this work. The Kd (iC3b [5]) was 270 nM.
